Laboratory results as given in the supplement of paper PMC10567573.

B1: ARL6IP1 (parent)
chain: YLDPSVLSGVSCFVMFLCLADYLV
B2: DLC1 (parent)
chain: KRSWEEHVTHWMGQPFNSDDRNTA

Variants of: B1
Test: protein stability index of a GFP-peptide fusion (GPS, HEK-293T) (PSI 1-6); higher = more stable
Conditions: c terminus: a fixed tail appended
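Note: lentivirally expressed fusions sorted by FACS into six bins by GFP to DsRed ratio, PSI derived from sequencing read proportions per bin multiplied by bin number.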

Variant | protein stability index
YLDPNVLSGVSCFVMFLCLADYLV | 2.26
YLDPSVLSGVSCFVMFLCLADKLV | 3.93
YKDPSVLSGVSCFVMFLCLADYLV | 3.31
YLDPSVLSGVSCFVMFLCLADYQV | 2.69
YLDPSVLFGVSCFVMFLCLADYLV | 3.22

Variants of: B2
Test: as above
Conditions: c terminus: a fixed tail appended

Variant | protein stability index
KRSWEEHVTHWMGQPYNSDDRNTA | 2.69
KRSWEEHVTHWMGQPTNSDDRNTA | 2.37
KRSWEEHVTHWMGQPWNSDDRNTA | 2.35
KRSWEEHVTHWMGQPRNSDDRNTA | 2.27
KRSWEEHVTHWMGQPKNSDDRNTA | 2.97
KRSWEEHVTHWMGQPANSDDRNTA | 2.54
KRSWEEHVTHWMGQPINSDDRNTA | 2.63
KRSWEEHVTHWMGQPLNSDDRNTA | 3.55
KRSWEEHVTHWMGQPNNSDDRNTA | 3.62
KRSWEEHVTHWMGQPQNSDDRNTA | 2.41
KRSWEEHVTHWMGQPHNSDDRNTA | 2.77
KRSWEEHVTHWMGQPVNSDDRNTA | 3.34
KRSWEEHVTHWMGQPGNSDDRNTA | 3.14
KRSWEEHVTHWMGQPPNSDDRNTA | 2.68
KRSWEEHVTHWMGQPCNSDDRNTA | 2.66
KRSWEEHVTHWMGQPDNSDDRNTA | 2.59
KRSWEEHVTHWMGQPMNSDDRNTA | 2.94
KRSWEEHVTHWMGQPENSDDRNTA | 3.08
KRSWEEHVTHWMGQPSNSDDRNTA | 3.07
KRSWEEHVTHWMGQPFNSDDRNLA | 2.08
KRSWEEHVTHWMGQPFNSDDRNMA | 1.73
KRSWEEHVTHWMGQPFNSDDRNKA | 2.74
KRSWEEHVTHWMGQPFNSDDRNDA | 3.26

Variant | protein stability index
KRSWEEHVTHWMGQPFNSDDRNFA | 2.13
KRSWEEHVTHWMGQPFNSDDRNGA | 2.69
KRSWEEHVTHWMGQPFNSDDRNVA | 2.13
KRSWEEHVTHWMGQPFNSDDRNHA | 2.23
KRSWEEHVTHWMGQPFNSDDRNWA | 1.79
KRSWEEHVTHWMGQPFNSDDRNIA | 2.35
KRSWEEHVTHWMGQPFNSDDRNAA | 2.22
KRSWEEHVTHWMGQPFNSDDRNPA | 2.46
KRSWEEHVTHWMGQPFNSDDRNSA | 2.26
KRSWEEHVTHWMGQPFNSDDRNQA | 3.27
KRSWEEHVTHWMGQPFNSDDRNCA | 3.51
KRSWEEHVTHWMGQPFNSDDRNEA | 2.73
KRSWEEHVTHWMGQPFNSDDRNRA | 2.65
KRSWEEHVTHWMGQPFNSDDRNYA | 2.16
KRSWEEHVTHWMGQPFNSDDRNNA | 2.74
KRSWEEHVTHWMGQPFNSGDRNTA | 2.25
KRSWEEHVTHWMGQPFNSNDRNTA | 2.69
KRSWEEHVTHWMGQPFNSQDRNTA | 2.65
KRSWEEHVTHWMGQPFNSFDRNTA | 1.85
KRSWEEHVTHWMGQPFNSYDRNTA | 1.43
KRSWEEHVTHWMGQPFNSLDRNTA | 2.12
KRSWEEHVTHWMGQPFNSADRNTA | 2.67
KRSWEEHVTHWMGQPFNSTDRNTA | 2.4

Variant | protein stability index
KRSWEEHVTHWMGQPFNSHDRNTA | 2.29
KRSWEEHVTHWMGQPFNSKDRNTA | 2.61
KRSWEEHVTHWMGQPFNSIDRNTA | 3.12
KRSWEEHVTHWMGQPFNSWDRNTA | 2.64
KRSWEEHVTHWMGQPFNSVDRNTA | 1.97
KRSWEEHVTHWMGQPFNSSDRNTA | 2.6
KRSWEEHVTHWMGQPFNSMDRNTA | 2.88
KRSWEEHVTHWMGQPFNSEDRNTA | 2.76
KRSWEEHVTHWMGQPFNSPDRNTA | 2.73
KRSWEEHVTHWMGQPFNSRDRNTA | 2.54
KRSWEEHVTHWMGQPFNLDDRNTA | 2.03
KRSWEEHVTHWMGQPFNVDDRNTA | 2.31
KRSWEEHVTHWMGQPFNQDDRNTA | 3.02
KRSWEEHVTHWMGQPFNIDDRNTA | 2.61
KRSWEEHVTHWMGQPFNCDDRNTA | 2.34
KRSWEEHVTHWMGQPFNEDDRNTA | 2.97
KRSWEEHVTHWMGQPFNHDDRNTA | 2.66
KRSWEEHVTHWMGQPFNFDDRNTA | 2.27
KRSWEEHVTHWMGQPFNPDDRNTA | 3.11
KRSWEEHVTHWMGQPFNRDDRNTA | 2.1
KRSWEEHVTHWMGQPFNADDRNTA | 3.48
KRSWEEHVTHWMGQPFNYDDRNTA | 2.26
KRSWEEHVTHWMGQPFNMDDRNTA | 2.92

Variant | protein stability index
KRSWEEHVTHWMGQPFNTDDRNTA | 3.21
KRSWEEHVTHWMGQPFNDDDRNTA | 3.1
KRSWEEHVTHWMGQPFNKDDRNTA | 3.12
KRSWEEHVTHWMGQPFNWDDRNTA | 2.01
KRSWEEHVTHWMGQPFNGDDRNTA | 2.76
KRSWEEHVTHWMGQPFNSDDRNTY | 1.72
KRSWEEHVTHWMGQPFNSDDRNTS | 2.67
KRSWEEHVTHWMGQPFNSDDRNTG | 2.97
KRSWEEHVTHWMGQPFNSDDRNTF | 2.37
KRSWEEHVTHWMGQPFNSDDRNTL | 2.89
KRSWEEHVTHWMGQPFNSDDRNTE | 3.59
KRSWEEHVTHWMGQPFNSDDRNTC | 2.32
KRSWEEHVTHWMGQPFNSDDRNTK | 3.54
KRSWEEHVTHWMGQPFNSDDRNTD | 2.82
KRSWEEHVTHWMGQPFNSDDRNTT | 2.43
KRSWEEHVTHWMGQPFNSDDRNTR | 2.86
KRSWEEHVTHWMGQPFNSDDRNTI | 2.81
KRSWEEHVTHWMGQPFNSDDRNTP | 2.92
KRSWEEHVTHWMGQPFNSDDRNTV | 3.28
KRSWEEHVTHWMGQPFNSDDRNTW | 2.6
